In patent US20110288036A1, “Methods for Treating or Preventing Vascular Graft Failure” (priority 2010, published 2011) one finds Percent Activity (radiometric kinase assay, 100 µM peptide) (percent activity) data, which are given here for one molecule.

Where no end group is shown, it is not given here.

This test deals with MK2 (mitogen-activated protein kinase-activated protein kinase 2), P49137. The test can be described thus: cell-based or functional assay.
Chain of MK2 (mitogen-activated protein kinase-activated protein kinase 2), P49137 (P49137 46-400): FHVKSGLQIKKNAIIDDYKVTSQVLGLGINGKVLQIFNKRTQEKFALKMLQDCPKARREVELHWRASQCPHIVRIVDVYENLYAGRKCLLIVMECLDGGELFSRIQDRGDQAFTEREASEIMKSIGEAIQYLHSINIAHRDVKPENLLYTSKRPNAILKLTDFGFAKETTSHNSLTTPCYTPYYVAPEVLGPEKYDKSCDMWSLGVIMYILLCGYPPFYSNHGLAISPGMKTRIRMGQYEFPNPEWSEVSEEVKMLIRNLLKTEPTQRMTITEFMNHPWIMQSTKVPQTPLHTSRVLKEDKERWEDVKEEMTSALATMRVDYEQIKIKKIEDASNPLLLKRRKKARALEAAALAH

B1: MMI-0100 (…; SEQ ID NO: 1) (peptide)
peptide: YARAAARQARAKALARQLGVAA
modifications: not fully specified (C-terminus)
In turn, B1 returned a Percent Activity (radiometric kinase assay, 100 µM peptide) (percent activity) of under 5.
